The target in experiment [1] is T1, human B-cell activating factor (BAFF) (human, UniProt Q9Y275 134-285).
Experiment [2] has as its target T1, human B-cell activating factor (BAFF). Kind of experiment: ELISA; equilibrium binding in solution: human BAFF at 25 pM mixed with antagonist (0.04 nM to 655.36 nM) overnight at room temperature; unbound BAFF detected by ELISA. A general note: An ELISA detects its analyte on a solid surface through an enzyme-linked reagent.
Experiment [3] has the same target. Put plainly: cell-based or functional assay.

Where two headings read alike, the source gives them in different places.

T1 sequence (Q9Y275 134-285): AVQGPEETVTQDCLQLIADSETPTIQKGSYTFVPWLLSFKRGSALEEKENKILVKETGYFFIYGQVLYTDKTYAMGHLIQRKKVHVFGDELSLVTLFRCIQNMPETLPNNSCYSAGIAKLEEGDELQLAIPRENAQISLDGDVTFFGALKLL

Consider “BAFF-Trap (variant B101): CRD2 of TACI, CRD of Br3 and Fc domain of human IgG1 (Fc fusion)”, for which the IC50 of inhibition of Raji cell proliferation induced by BAFF (1 μg/ml) and anti-IgM, CCK-8, 72 h; blocks BAFF from its receptors TACI and Br3 on Raji cells in experiment [1] worked out at 50.6 nM. The Kd in experiment [2] came to 3.62 nM.
“BAFF-Trap variant B102: CRD of Br3, CRD2 of TACI and Fc domain of human IgG1 (Fc fusion)” yielded an IC50 of inhibition of Raji cell proliferation induced by BAFF (1 μg/ml) and anti-IgM, CCK-8, 72 h in experiment [1] of 165 nM.

B1: TACI-Fc (Fc fusion, UniProt O14836 1-165, looked up)
chain: MSGLGRSRRGGRSRVDQEERFPQGLWTGVAMRSCPEEQYWDPLLGTCMSCKTICNHQSQRTCAAFCRSLSCRKEQGKFYDHLLRDCISCASICGQHPKQCAYFCENKLRSPVNLPPELRRQRSGEVENNSDNSGRYQGLEHRGSEASPALPGLKLSADQVALVYS
On to B1, for which, in experiment [3], the “IC50 of inhibition of Raji cell proliferation induced by BAFF (1 μg/ml) and anti-IgM, CCK-8, 72 h” value came out at 69.5 nM.

A word on the Kd: it is the constant that tells how readily two partners part at equilibrium. Lower therefore signals a tighter complex.

The values above are taken from PMC6565627, “Therapeutic effects of a novel BAFF blocker on arthritis” (Signal Transduction and Targeted Therapy, 2019).
